We go through one molecule from paper PMC5624674.

The assay deals with T1, λCI-CbtA fusion protein (wild-type CbtA toxin of E. coli) (E. coli), P64524.
T1 chain: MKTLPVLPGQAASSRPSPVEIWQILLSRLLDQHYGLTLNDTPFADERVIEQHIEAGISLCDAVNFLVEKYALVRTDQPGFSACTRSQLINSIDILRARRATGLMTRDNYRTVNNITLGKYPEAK
In words: two-hybrid. Particulars: remark: other sources report otherwise.

B1: α-MreB fusion protein (wild-type E. coli MreB), P0A9X4 1-347 (natural protein)
chain: MLKKFRGMFSNDLSIDLGTANTLIYVKGQGIVLNEPSVVAIRQDRAGSPKSVAAVGHDAKQMLGRTPGNIAAIRPMKDGVIADFFVTEKMLQHFIKQVHSNSFMRPSPRVLVCVPVGATQVERRAIRESAQGAGAREVFLIEEPMAAAIGAGLPVSEATGSMVVDIGGGTTEVAVISLNGVVYSSSVRIGGDRFDEAIINYVRRNYGSLIGEATAERIKHEIGSAYPGDEVREIEVRGRNLAEGVPRGFTLNSNEILEALQEPLTGIVSAVMVALEQCPPELASDISERGMVLTGGGALLRNLDRLLMEETGIPVVVAEDPLTCVARGGGKALEMIDMHGGDLFSEE
On to B1, for which the fold increase in lacZ expression is 3 fold.
